Assay results published in PMC3956076.

Substrate: Nc1ncnc2c1ncn2[C@@H]1O[C@H](COP(=O)(O)OP(=O)(O)OP(=O)(O)OP(=O)(O)OC[C@H]2O[C@@H](n3cnc4c(N)ncnc43)[C@H](O)[C@@H]2O)[C@@H](O)[C@H]1O
Assay: luciferase bioluminescence assay of liberated ATP
Format: biochemical, Chlamydia trachomatis
Conditions: 5.0 mM MgCl2, 100 mM Tris-HCl pH 7.5, room temperature

B1: CT771 (Chlamydia trachomatis L2/434/Bu) (protein)
chain: MMKTKHEYSFGVIPIRFFGTPDRSTLKACFICHTDGKHWGFPKGHAEEKEGPQEAAERELVEETGLGIVNFFPKIFVENYSFNDKEEIFVRKEVTYFLAEVKGEVHADPDEICDVQWLSFQEGLRLLNFPEIRNIVTEADKFVQSYLFAS
Question: How did the Km turn out when B1 was run?
Answer: 333 ± 27 µM

Question: What about the kcat of the same protein?
Answer: 3.25 ± 0.1 s⁻¹
